The source of these data is patent publication US20020132977A1 (Harvard, published 2002).

In this experiment the target is T1, GFP-tagged p73 (human, UniProt O15350 1-636).
T1 construct: also called GFP-p73; not shown: GFP (pEGFP vector)
T1 sequence: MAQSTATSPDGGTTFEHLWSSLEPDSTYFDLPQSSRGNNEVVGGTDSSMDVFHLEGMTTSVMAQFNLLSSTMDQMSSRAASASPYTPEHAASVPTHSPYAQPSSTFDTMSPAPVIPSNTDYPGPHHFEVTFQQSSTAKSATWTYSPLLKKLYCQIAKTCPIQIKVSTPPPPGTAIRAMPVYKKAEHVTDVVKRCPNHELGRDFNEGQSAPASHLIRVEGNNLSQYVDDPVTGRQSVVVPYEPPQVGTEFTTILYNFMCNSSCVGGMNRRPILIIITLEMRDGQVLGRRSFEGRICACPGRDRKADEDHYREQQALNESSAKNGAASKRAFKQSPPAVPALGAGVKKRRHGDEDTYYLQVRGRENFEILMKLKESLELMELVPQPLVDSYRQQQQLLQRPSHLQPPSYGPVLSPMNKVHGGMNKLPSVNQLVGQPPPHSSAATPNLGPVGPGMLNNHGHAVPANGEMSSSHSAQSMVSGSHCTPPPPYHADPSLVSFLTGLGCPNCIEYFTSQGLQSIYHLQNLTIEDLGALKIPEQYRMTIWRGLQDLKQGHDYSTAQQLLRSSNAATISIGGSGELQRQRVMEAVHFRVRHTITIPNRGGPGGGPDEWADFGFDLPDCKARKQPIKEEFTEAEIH
Kind of experiment: anti-Flag IP, anti-GFP Western.

B1: p73β (p53aa319-364) (other)
chain: MAQSTATSPDGGTTFEHLWSSLEPDSTYFDLPQSSRGNNEVVGGTDSSMDVFHLEGMTTSVMAQFNLLSSTMDQMSSRAASASPYTPEHAASVPTHSPYAQPSSTFDTMSPAPVIPSNTDYPGPHHFEVTFQQSSTAKSATWTYSPLLKKLYCQIAKTCPIQIKVSTPPPPGTAIRAMPVYKKAEHVTDVVKRCPNHELGRDFNEGQSAPASHLIRVEGNNLSQYVDDPVTGRQSVVVPYEPPQVGTEFTTILYNFMCNSSCVGGMNRRPILIIITLEMRDGQVLGRRSFEGRICACPGRDRKADEDHYREQQALNESSAKNGAASKRAFKQSPPAVPALGAGVKKKPLDGEYFTLQIRGRERFEMFRELNEALELKDAQAGKEPGGSRAQQQQLLQRPSHLQPPSYGPVLSPMNKVHGGMNKLPSVNQLVGQPPPHSSAATPNLGPVGPGMLNNHGHAVPANGEMSSSHSAQSMVSGSHCTPPPPYHADPSLVRTWGP
notes: range 1-344;range 391-C-terminus; also called p73 chimera with OD of p53; Flag-tagged p53-p73 chimera with switched OD; not shown: Flag tag
Turning to B1, the binding result is on record as “no binding”.
